# Experimental data as given in the supplement of paper PMC11246515.
# ± gives the standard deviation of the averaged measurements.
# Assay: total protein half-life in vivo (active degradation + dilution); higher = more stable protein
# [1] = E. coli NCM3722 delta-clpP delta-lon delta-hslV, growth: N-lim chemostat, doubling time 6 h
# [2] = E. coli NCM3722 delta-clpP, growth: N-lim chemostat, doubling time 6 h
# [3] = wild type E. coli NCM3722, growth: C-lim chemostat, doubling time 3 h
# [4] = wild type E. coli NCM3722, growth: C-lim chemostat, doubling time 6 h
# [5] = wild type E. coli NCM3722, growth: C-lim chemostat, doubling time 12 h
# [6] = wild type E. coli NCM3722, growth: N-lim chemostat, doubling time 12 h
# [7] = wild type E. coli NCM3722, growth: P-lim chemostat, doubling time 6 h
# [8] = wild type E. coli NCM3722, growth: P-lim chemostat, doubling time 12 h
# [9] = E. coli NCM3722 delta-hslV, growth: N-lim chemostat, doubling time 6 h
# [10] = E. coli NCM3722 delta-lon, growth: N-lim chemostat, doubling time 6 h
# [11] = E. coli NCM3722 delta-smpB, growth: N-lim chemostat, doubling time 6 h
# [12] = wild type E. coli NCM3722, growth: N-lim chemostat, doubling time 6 h
Sequence,total protein half-life in vivo [1] [h],total protein half-life in vivo [2] [h],total protein half-life in vivo [3] [h],total protein half-life in vivo [4] [h],total protein half-life in vivo [5] [h],total protein half-life in vivo [6] [h],total protein half-life in vivo [7] [h],total protein half-life in vivo [8] [h],total protein half-life in vivo [9] [h],total protein half-life in vivo [10] [h],total protein half-life in vivo [11] [h],total protein half-life in vivo [12] [h]
MSQNLDATAINQIHALISAQGVNEIISKIGADAVALPENFRIHDLEKFNLNRFRFRGALSTASIDDFTRYSKDLADEGTRCFIDADNMRAVSVLNLGTIDEPGHADNTATLKLKKTAPFSALLSVNGERNSQKSLAEWIEDWADYLVGFDANGDAIQATKAAAAIRKITIEANQTADFEDNDFSGKRSLMESVEAKTKDIMPVAFEFKCVPFEGLKERPFKLRLSIITGDRPVLVLRIIQLEAVQEDMANEFRDLLVEKFKDSKVETFIGTFTA,3.03 ± 0.25,3.16,2.69,5.13 ± 0.22,9.79 ± 0.92,5.29,5.71 ± 0.56,15.2 ± 0.98,,,,
MSKPFKLNSAFKPSGDQPEAIRRLEEGLEDGLAHQTLLGVTGSGKTFTIANVIADLQRPTMVLAPNKTLAAQLYGEMKEFFPENAVEYFVSYYDYYQPEAYVPSSDTFIEKDASVNEHIEQMRLSATKAMLERRDVVVVASVSAIYGLGDPDLYLKMMLHLTVGMIIDQRAILRRLAELQYARNDQAFQRGTFRVRGEVIDIFPAESDDIALRVELFDEEVERLSLFDPLTGQIVSTIPRFTIYPKTHYVTPRERIVQAMEEIKEELAARRKVLLENNKLLEEQRLTQRTQFDLEMMNELGYCSGIENYSRFLSGRGPGEPPPTLFDYLPADGLLVVDESHVTIPQIGGMYRGDRARKETLVEYGFRLPSALDNRPLKFEEFEALAPQTIYVSATPGNYELEKSGGDVVDQVVRPTGLLDPIIEVRPVATQVDDLLSEIRQRAAINERVLVTTLTKRMAEDLTEYLEEHGERVRYLHSDIDTVERMEIIRDLRLGEFDVLVGINLLREGLDMPEVSLVAILDADKEGFLRSERSLIQTIGRAARNVNGKAILYGDKITPSMAKAIGETERRREKQQKYNEEHGITPQGLNKKVVDILALGQNIAKTKAKGRGKSRPIVEPDNVPMDMSPKALQQKIHELEGLMMQHAQNLEFEEAAQIRDQLHQLRELFIAAS [P0A8F8],5.26 ± 0.16,4.561 ± 0.016,2.44 ± 0.18,4.02 ± 0.073,6.348 ± 0.01,4.85 ± 0.78,3.67 ± 0.054,5.85 ± 0.49,2.99 ± 0.055,3.39 ± 0.18,2.85 ± 0.065,2.96 ± 0.15
MTHFSQQDNFSVAARVLGALFYYAPESAEAAPLVAVLTSDGWETQWPLPEASLAPLVTAFQTQCEETHAQAWQRLFVGPWALPSPPWGSVWLDRESVLFGDSTLALRQWMREKGIQFEMKQNEPEDHFGSLLLMAAWLAENGRQTECEELLAWHLFPWSTRFLDVFIEKAEHPFYRALGELARLTLAQWQSQLLIPVAVKPLFR,3.98 ± 0.19,4.54 ± 1.1,3 ± 0.17,5.45,11.7 ± 1.3,7.72 ± 1.9,5.41 ± 0.39,11.3 ± 0.19,4.18 ± 0.73,5.74 ± 1.5,4.5 ± 0.51,4.4 ± 0.41
MKKAIAYMRFSSPGQMSGDSLNRQRRLIAEWLKVNSDYYLDTITYEDLGLSAFKGKHAQSGAFSEFLDAIEHGYILPGTTLLVESLDRLSREKVGEAIERLKLILNHGIDVITLCDNTVYNIDSLNEPYSLIKAILIAQRANEESEIKSSRVKLSWKKKRQDALESGTIMTASCPRWLSLDDKRTAFVPDPDRVKTIELIFKLRMERRSLNAIAKYLNDHAVKNFSGKESAWGPSVIEKLLANKALIGICVPSYRARGKGISEIAGYYPRVISDDLFYAVQEIRLAPFGISNSSKNPMLINLLRTVMKCEACGNTMIVHAVSGSLHGYYVCPMRRLHRCDRPSIKRDLVDYNIINELLFNCSKIQPVENKKDANETLELKIIELQMKINNLIVALSVAPEVTAIAEKIRLLDKELRRASVSLKTLKSKGVNSFSDFYAIDLTSKNGRELCRTLAYKTFEKIIINTDNKTCDIYFMNGIVFKHYPLMKVISAQQAISALKYMVDGEIYF,> 8,1.49,1.41,,1.97,14,,,,,,
MNLSTKQKQHLKGLAHPLKPVVLLGSNGLTEGVLAEIEQALEHHELIKVKIATEDRETKTLIVEAIVRETGACNVQVIGKTLVLYRPTKERKISLPR [P0AGK4],7 ± 0.84,5.91 ± 0.59,3.11 ± 0.53,5.73 ± 0.12,9.46 ± 1.2,10.8 ± 2.1,4.88 ± 1.1,12.6 ± 3,6.12 ± 0.24,6.47 ± 0.075,5.7 ± 0.41,4.83 ± 0.25
MLERLSWKRLVLELLLCCLPAFILGAFFGYLPWFLLASVTGLLIWHFWNLLRLSWWLWVDRSMTPPPGRGSWEPLLYGLHQMQLRNKKRRRELGNLIKRFRSGAESLPDAVVLTTEEGGIFWCNGLAQQILGLRWPEDNGQNILNLLRYPEFTQYLKTRDFSRPLNLVLNTGRHLEIRVMPYTHKQLLMVARDVTQMHQLEGARRNFFANVSHELRTPLTVLQGYLEMMNEQPLEGAVREKALHTMREQTQRMEGLVKQLLTLSKIEAAPTHLLNEKVDVPMMLRVVEREAQTLSQKKQTFTFEIDNGLKVSGNEDQLRSAISNLVYNAVNHTPEGTHITVRWQRVPHGAEFSVEDNGPGIAPEHIPRLTERFYRVDKARSRQTGGSGLGLAIVKHAVNHHESRLNIESTVGKGTRFSFVIPERLIAKNSD,6.39 ± 0.09,6.38 ± 0.28,3.118 ± 0.019,5.82 ± 0.35,12.3 ± 1.7,12.7 ± 2,6.19 ± 0.21,12.2 ± 0.24,5.95 ± 1.3,,6.31 ± 0.26,6.4435 ± 0.0015
MDFNLNDEQELFVAGIRELMASENWEAYFAECDRDSVYPERFVKALADMGIDSLLIPEEHGGLDAGFVTLAAVWMELGRLGAPTYVLYQLPGGFNTFLREGTQEQIDKIMAFRGTGKQMWNSAITEPGAGSDVGSLKTTYTRRNGKIYLNGSKCFITSSAYTPYIVVMARDGASPDKPVYTEWFVDMSKPGIKVTKLEKLGLRMDSCCEITFDDVELDEKDMFGREGNGFNRVKEEFDHERFLVALTNYGTAMCAFEDAARYANQRVQFGEAIGRFQLIQEKFAHMAIKLNSMKNMLYEAAWKADNGTITSGDAAMCKYFCANAAFEVVDSAMQVLGGVGIAGNHRISRFWRDLRVDRVSGGSDEMQILTLGRAVLKQYR,> 8,,2.46,3.58,7.41 ± 1.4,,5.45 ± 0.16,11.5 ± 1.7,,3.62 ± 0.096,2.77 ± 0.42,
MLIPWQDLSPETLENLIESFVLREGTDYGEHERTLEQKVADVKRQLQCGEAVLVWSELHETVNIMPRSQFRE,5.2,3.21,,3.93,,,4.61,7.98,,4.14,,
MLKTIRKHGITLALFAAGSTGLTAAINQMTKTTIAEQASLQQKALFDQVLPAERYNNALAQSCYLVTAPELGKGEHRVYIAKQDDKPVAAVLEATAPDGYSGAIQLLVGADFNGTVLGTRVTEHHETPGLGDKIELRLSDWITHFAGKKISGADDAHWAVKKDGGDFDQFTGATITPRAVVNAVKRAGLYAQTLPAQLSQLPACGE,5.83 ± 1.8,,3.07 ± 0.086,5.7 ± 0.36,10.6 ± 1.6,11.9 ± 0.64,5.82 ± 0.13,11.9 ± 0.49,6.171 ± 0.022,5.52 ± 1.2,6.06 ± 0.48,5.75 ± 0.07
MKVAKDLVVSLAYQVRTEDGVLVDESPVSAPLDYLHGHGSLISGLETALEGHEVGDKFDVAVGANDAYGQYDENLVQRVPKDVFMGVDELQVGMRFLAETDQGPVPVEITAVEDDHVVVDGNHMLAGQNLKFNVEVVAIREATEEELAHGHVHGAHDHHHDHDHDGCCGGHGHDHGHEHGGEGCCGGKGNGGCGCH [P0A9K9],4.87 ± 0.55,4.07 ± 0.042,2.88 ± 0.18,4.63 ± 0.15,8.14 ± 0.37,5.28 ± 0.73,4.54 ± 0.53,8.69 ± 0.066,3.46 ± 0.26,4.18 ± 0.1,3.3811 ± 0.00031,3.47 ± 0.24
MATTQQSGFAPAASPLASTIVQTPDDAIVAGFTSIPSQGDNMPAYHARPKQSDGPLPVVIVVQEIFGVHEHIRDICRRLALEGYLAIAPELYFREGDPNDFADIPTLLSGLVAKVPDSQVLADLDHVASWASRNGGDVHRLMITGFCWGGRITWLYAAHNPQLKAAVAWYGKLTGDKSLNSPKQPVDIATDLNAPILGLYGGQDNSIPQESVETMRQALRAANAKAEIIVYPDAGHAFNADYRPSYHAASAEDGWQRMLEWFKQYGGKKSL,4.8 ± 0.66,3.82 ± 0.21,2.59 ± 0.14,4.52 ± 0.53,8.52 ± 2.4,5.35 ± 1.5,4.06 ± 0.17,8.35 ± 0.2,4.01 ± 0.11,4.18 ± 0.37,3.92 ± 0.051,3.85 ± 0.1
MTEPLTETPELSAKYAWFFDLDGTLAEIKPHPDQVVVPDNILQGLQLLATASDGALALISGRSMVELDALAKPYRFPLAGVHGAERRDINGKTHIVHLPDAIARDISVQLHTVIAQYPGAELEAKGMAFALHYRQAPQHEDALMTLAQRITQIWPQMALQQGKCVVEIKPRGTSKGEAIAAFMQEAPFIGRTPVFLGDDLTDESGFAVVNRLGGMSVKIGTGATQASWRLAGVPDVWSWLEMITTALQQKRENNRSDDYESFSRSI,5.34 ± 2.1,3.13 ± 0.27,2.55,4.3 ± 0.26,6.12 ± 0.22,3.59 ± 0.55,3.2 ± 1,6.94 ± 0.087,2.4 ± 0.1,2.67 ± 0.028,2.32 ± 0.11,2.5 ± 0.13
MPAPVVLILAAGRGECFLASGGNTHKCIGWRQSPEVAPYRWPFEENGRTFDLAIEPQITTNDLRLMLRLALAGGGITIATQETFRPYIESGKLVSLLDDFLPQFPGFYLYFPQRRNIAPKLRALIDYVKEWRQQLA,4.63,,,,,,,,,,,
MIDFGNFYSLIAKNHLSHWLETLPAQIANWQREQQHGLFKQWSNAVEFLPEIKPYRLDLLHSVTAESEEPLSAGQIKRIETLMRNLMPWRKGPFSLYGVNIDTEWRSDWKWDRVLPHLSDLTGRTILDVGCGSGYHMWRMIGAGAHLAVGIDPTQLFLCQFEAVRKLLGNDQRAHLLPLGIEQLPALKAFDTVFSMGVLYHRRSPLEHLWQLKDQLVNEGELVLETLVIDGDENTVLVPGDRYAQMRNVYFIPSALALKNWLKKCGFVDIRIADVSVTTTEEQRRTEWMVTESLADFLDPHDPGKTVEGYPAPKRAVLIARKP,5.27 ± 0.08,4.888 ± 0.034,3.11 ± 0.086,5.84 ± 0.0082,13.1 ± 3.1,11.6 ± 2.1,5.89 ± 0.94,12.3 ± 0.86,5.33 ± 0.13,5.97 ± 1.3,5.36 ± 0.11,5.59
MNILGFFQRLGRALQLPIAVLPVAALLLRFGQPDLLNVAFIAQAGGAIFDNLALIFAIGVASSWSKDSAGAAALAGAVGYFVLTKAMVTINPEINMGVLAGIITGLVGGAAYNRWSDIKLPDFLSFFGGKRFVPIATGFFCLVLAAIFGYVWPPVQHAIHAGGEWIVSAGALGSGIFGFINRLLIPTGLHQVLNTIAWFQIGEFTNAAGTVFHGDINRFYAGDGTAGMFMSGFFPIMMFGLPGAALAMYFAAPKERRPMVGGMLLSVAVTAFLTGVTEPLEFLFMFLAPLLYLLHALLTGISLFVATLLGIHAGFSFSAGAIDYALMYNLPAASQNVWMLLVMGVIFFAIYFVVFSLVIRMFNLKTPGREDKEDEIVTEEANSNTEEGLTQLATNYIAAVGGTDNLKAIDACITRLRLTVADSARVNDTMCKRLGASGVVKLNKQTIQVIVGAKAESIGDAMKKVVARGPVAAASAEATPATAAPVAKPQAVPNAVSIAELVSPITGDVVALDQVPDEAFASKAVGDGVAVKPTDKIVVSPAAGTIVKIFNTNHAFCLETEKGAEIVVHMGIDTVALEGKGFKRLVEEGAQVSAGQPILEMDLDYLNANARSMISPVVCSNIDDFSGLIIKAQGHIVAGQTPLYEIKK,6.3 ± 0.38,6.68 ± 1.1,3.142 ± 0.004,5.88 ± 0.17,11.9 ± 1.4,11.5 ± 0.56,6.04 ± 0.14,12.6 ± 0.78,6.55 ± 1.2,5.86 ± 0.12,5.83 ± 0.32,5.91 ± 0.66
